Laboratory results reported in US20250074980A1 (BRIGHAM AND WOMEN S HOSPITAL, published 2025).
Where a chain is given by its changes, count along the chain named. Names and notes keep the numbering of the source. Values joined by “and” are separate entries in the source; they are usually repeats but may differ in a detail not shown here. Equal values may be shown once.

T1: CEACAM3 on transfected HeLa cells (human, UniProt P40198 35-252)
T1 construct: whole, on cells; also called HeLa-CEACAM3; HeLa C3
T1 sequence (looked up): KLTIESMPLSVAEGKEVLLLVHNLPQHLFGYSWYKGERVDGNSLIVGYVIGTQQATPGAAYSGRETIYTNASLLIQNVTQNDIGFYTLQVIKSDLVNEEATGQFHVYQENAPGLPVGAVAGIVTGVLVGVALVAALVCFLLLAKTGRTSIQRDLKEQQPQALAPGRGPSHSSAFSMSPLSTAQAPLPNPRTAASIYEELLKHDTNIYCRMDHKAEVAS

T2: CEACAM8 on transfected HeLa cells (human, UniProt P31997 35-320)
T2 construct: whole, on cells; also called HeLa-CEACAM8; HeLa C8
T2 sequence (looked up): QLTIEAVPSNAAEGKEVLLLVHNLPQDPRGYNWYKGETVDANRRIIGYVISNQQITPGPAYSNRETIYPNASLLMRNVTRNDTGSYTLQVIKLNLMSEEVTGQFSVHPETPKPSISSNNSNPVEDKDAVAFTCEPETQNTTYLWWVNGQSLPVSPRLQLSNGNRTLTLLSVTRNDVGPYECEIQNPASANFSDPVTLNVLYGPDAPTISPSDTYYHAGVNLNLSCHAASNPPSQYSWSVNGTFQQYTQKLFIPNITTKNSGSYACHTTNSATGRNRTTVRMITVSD

T3: His-tagged CEACAM1 (human, UniProt P13688 35-428)
T3 construct: 45 kDa SPR analyte; also called CEACAM1-HIS; CEACAM1 analyte
T3 sequence: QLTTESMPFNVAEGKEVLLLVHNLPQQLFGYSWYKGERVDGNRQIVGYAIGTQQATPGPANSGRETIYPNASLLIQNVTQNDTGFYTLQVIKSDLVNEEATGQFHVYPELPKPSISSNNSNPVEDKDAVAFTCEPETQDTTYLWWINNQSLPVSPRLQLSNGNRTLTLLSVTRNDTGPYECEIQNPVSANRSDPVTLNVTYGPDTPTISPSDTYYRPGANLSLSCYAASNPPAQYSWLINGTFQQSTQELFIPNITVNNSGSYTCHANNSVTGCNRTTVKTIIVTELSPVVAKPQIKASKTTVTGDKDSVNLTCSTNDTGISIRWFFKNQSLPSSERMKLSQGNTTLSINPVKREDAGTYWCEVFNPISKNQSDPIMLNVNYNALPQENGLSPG

T4: CEACAM6 on transfected HeLa cells (human, UniProt P40199 35-320)
T4 construct: whole, on cells; also called HeLa-CEACAM6; HeLa C6
T4 sequence (looked up): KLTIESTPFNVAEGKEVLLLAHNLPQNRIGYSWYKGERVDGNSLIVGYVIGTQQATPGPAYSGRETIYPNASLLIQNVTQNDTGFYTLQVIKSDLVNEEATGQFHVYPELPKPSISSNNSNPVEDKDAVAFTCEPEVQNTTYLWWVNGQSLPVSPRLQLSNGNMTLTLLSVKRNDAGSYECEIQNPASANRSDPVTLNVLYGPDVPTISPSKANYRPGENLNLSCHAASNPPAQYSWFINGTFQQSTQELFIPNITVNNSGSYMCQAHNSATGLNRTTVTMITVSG

B1: VH1/Vκ7 (antibody, IgG4, V domains shown)
VH: EVQLLESGGGLVQPGGSLRLSCAASGFIFSSHGMSWVRQAPGKGLEWVATISSGGTYTYYPDSVKGRFTISRDNSKNTLYLQMNSLKAEDTAMYYCARHDFDYDAAWFAYWGQGTLVTVSS
VL: EIVLTQSPATLSLSPGERATLSCRANSSVSYMYWYQQKPGQAPRPWIYLTSNRATGVPARFSGSGSGTDFTLTISSLEPEDFATYYCQQWSSNPPTFGQGTKLEIK
notes: IgG4 (S241P), kappa
B2: VH2/Vκ11 (antibody, IgG4, V domains shown)
VH: B1 VH with K87R
VL: B1 VL with V57I, F70Y, T84V
notes: IgG4 (S241P), kappa
B3: VH1/Vκ8 (antibody, IgG4, V domains shown)
VH: B1 VH
VL: B1 VL with F70Y, T84V
notes: IgG4 (S241P), kappa
B4: VH2/Vκ7 (antibody, IgG4, V domains shown)
VH: B1 VH with K87R
VL: B1 VL
notes: IgG4 (S241P), kappa
B5: VH1/Vκ9 (antibody, IgG4, V domains shown)
VH: B1 VH
VL: B1 VL with W46L, F70Y
notes: IgG4 (S241P), kappa
B6: VH1/Vκ10 (antibody, IgG4, V domains shown)
VH: B1 VH
VL: B1 VL with V57I
notes: IgG4 (S241P), kappa
B7: VH2/Vκ10 (antibody, IgG4, V domains shown)
VH: B1 VH with K87R
VL: B1 VL with V57I
notes: IgG4 (S241P), kappa
B8: VH2/Vκ8 (antibody, IgG4, V domains shown)
VH: B1 VH with K87R
VL: B1 VL with F70Y, T84V
notes: IgG4 (S241P), kappa
B9: VH1/Vκ12 (antibody, IgG4, V domains shown)
VH: B1 VH
VL: B1 VL with W46L, V57I, F70Y
notes: IgG4 (S241P), kappa
B10: VH2/Vκ9 (antibody, IgG4, V domains shown)
VH: B1 VH with K87R
VL: B1 VL with W46L, F70Y
notes: IgG4 (S241P), kappa

Target: T1, CEACAM3 on transfected HeLa cells
Test: flow cytometry, transfected HeLa
How it was run: (§1)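 Flow cytometry was done on HeLa cells stably expressing single CEACAM family members, cultured in DMEM with 10% fetal bovine serum at 37° C, 5.0% CO₂, and stained with the test antibody, then a fluorochrome-conjugated isotype-specific secondary antibody, with DAPI for viability. Staining of each transfectant serves as the readout of binding selectivity.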

binding result	Binder
no binding	B1
no binding	B2
no binding	B3
no binding	B4
no binding	B5
no binding	B6
no binding	B7
no binding	B8
no binding	B9
no binding	B10

Target: T2, CEACAM8 on transfected HeLa cells
Test: flow cytometry, transfected HeLa
How it was run: as §1

binding result	Binder
no binding	B1
no binding	B2
no binding	B3
no binding	B4
no binding	B5
no binding	B6
no binding	B7
no binding	B8
no binding	B9
no binding	B10

Target: T3, His-tagged CEACAM1
Test: SPR multi-cycle, IgG captured
Protocol: (§2) As an alternative approach to assess the binding of the 36 antibody combinations and the three control antibodies to CEACAM1, a kinetic analysis was performed on a Biacore T200 (serial no. 1909913) running Biacore T200 Evaluation Software V2.0.1 (Uppsala, Sweden). All experiments were run at 25° C. with HBS-P+ running buffer (pH 7.4) (GE Healthcare, cat. no. BR100671). All kinetic experiments were performed using His-tagged CEACAM1 as the analyte. For all experiments, antibodies were immobilized onto a Series S Protein A sensor chip surface. For kinetic experiments, the amount of immobilized/captured ligand was limited to avoid mass transfer effects at the surface of the chip with the surface ideally having an analyte binding level (Rₘₐₓ) of 50-150 RUs. Using a MW of 45 kDa for the CEACAM1 analyte, 150 kDa for the antibody ligand (estimated value for IgG), 50 RU for Rmax and the stoichiometry (Sm) as 2 due to the ability of each antibody to bind 2 target molecules, a target response level of ˜75 RUs was set for capture of all the sample antibodies.
The signal from the reference channel Fc1 was subtracted from that of Fc2, Fc3 and Fc4 to correct for differences in non-specific binding to a reference surface, a global Rmax parameter was used in the 1-to-1 binding model. The relative Kp compared to […] was calculated by dividing the Kp of the humanized CEACAM antibody variants by that of the chimeric antibody VH0/Vκ0 on the same chip. A summary of the averaged relative Kp obtained for the 12 antibody combinations analyzed using multi cycle kinetics can be found in Table 5.

Kd	average relative KD to VH0/Vκ0	koff	kon	relative KD to VH0/Vκ0	Binder
119 nM and 69 nM	2	0.0492 s⁻¹ and 0.0352 s⁻¹	415000 M⁻¹ s⁻¹ and 510000 M⁻¹ s⁻¹	–	B1
77 nM	2.7	0.0289 s⁻¹	375000 M⁻¹ s⁻¹	2.5	B2
95 nM	1.8	0.0406 s⁻¹	430000 M⁻¹ s⁻¹	1.8	B3
71 nM	2.3	0.0258 s⁻¹	362000 M⁻¹ s⁻¹	2.4	B4
220 nM	4	0.0504 s⁻¹	229000 M⁻¹ s⁻¹	4	B5
180 nM	3.2	0.0511 s⁻¹	284000 M⁻¹ s⁻¹	3.2	B6
61 nM	2.1	0.0246 s⁻¹	407000 M⁻¹ s⁻¹	2.1	B7
125 nM	2.3	0.0417 s⁻¹	334000 M⁻¹ s⁻¹	2.3	B8
65 nM	2.2	0.0268 s⁻¹	411000 M⁻¹ s⁻¹	2.2	B9
96 nM and 75 nM	1.9	–	–	–	B10

Target: T3, His-tagged CEACAM1
Test: SPR single-cycle, IgG captured
Protocol: as §2
Single cycle analysis of the 36 antibody combinations and the three control antibodies was performed on purified antibodies (Vκ1 to Vκ6 variants) or on the supernatants of the transiently transfected HEK EBNA cells (Vκ7 to Vκ12 variants). In some instances, where supernatant was not available, purified chimeric antibody VH0/Vκ0 was spiked into HEK EBNA culture medium to use as a positive control. Antibodies were diluted in HBS-P+ to a concentration of 1 μg/ml (as determined by an IgG quantitation ELISA). At the start of each cycle, antibodies were loaded onto Fc2, Fc3 and Fc4 of a protein A chip and IgG captured at a flow rate of 8 μl/min to give an RU of ˜75. The surface was then allowed to stabilize. Single cycle kinetic data was obtained at a flow rate of 50 μl/min to minimize any potential mass transfer effects. Multiple repeats of the chimeric antibody VH0/Vκ0 were performed to check the stability of the surface and analyte over the kinetic cycles. The signal from the reference channel Fc1 (no antibody) was subtracted from that of Fc2, Fc3 and Fc4 to correct for differences in non-specific binding to a reference surface. A 5 point 2-fold dilution range from 3.125 to 50 nM CEACAM1 without regeneration between each concentration was used.

Kd [nM]	relative KD to VH0/Vκ0	Binder
109	2.6	B1
122	3	B2
131	3.2	B3
152	3.7	B4
142	3.4	B5
146	3.5	B6
131	3.2	B7
125	3	B8
143	3.5	B9
110	2.7	B10

Target: T4, CEACAM6 on transfected HeLa cells
Test: flow cytometry, HeLa-CEACAM6 transfectants, % positive cells
Protocol: Binding selectivity for CEACAM1 was tested for the 24 humanized antibody variants that bound to CEACAM1 (see Table 3), as well as the chimeric control antibody VH0/Vκ0, by flow cytometry on HeLa cells transfected with CEACAM1, 3, 5, 6 and 8. […] There was no evidence of any staining of the HeLa-CEACAM3 or HeLa-CEACAM8 transfectants. […] Due to its favorable affinity to and selectivity for CEACAM1 as well as its favorable expression level, VH1/Vκ8 was chosen as the framework for affinity maturation.

binding result	Binder
no binding	B1
no binding	B2
no binding	B3
no binding	B4
no binding	B5
no binding	B6
no binding	B7
no binding	B8
no binding	B9
no binding	B10
